# T1: high affinity trimeric IL-2R (IL-2Rα, IL-2Rβ and IL-2Rγ) on HEK-Blue IL-2 cells (UniProt P01589 22-272; P14784 27-551; P31785 23-369)
# T1 sequence (looked up) 1: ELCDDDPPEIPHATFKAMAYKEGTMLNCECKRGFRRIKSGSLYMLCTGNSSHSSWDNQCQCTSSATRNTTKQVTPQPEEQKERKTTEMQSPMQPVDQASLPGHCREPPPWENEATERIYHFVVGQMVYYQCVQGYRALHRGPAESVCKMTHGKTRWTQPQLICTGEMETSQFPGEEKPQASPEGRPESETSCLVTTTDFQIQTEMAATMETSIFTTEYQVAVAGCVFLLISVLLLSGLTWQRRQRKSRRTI
# T1 sequence (looked up) 2: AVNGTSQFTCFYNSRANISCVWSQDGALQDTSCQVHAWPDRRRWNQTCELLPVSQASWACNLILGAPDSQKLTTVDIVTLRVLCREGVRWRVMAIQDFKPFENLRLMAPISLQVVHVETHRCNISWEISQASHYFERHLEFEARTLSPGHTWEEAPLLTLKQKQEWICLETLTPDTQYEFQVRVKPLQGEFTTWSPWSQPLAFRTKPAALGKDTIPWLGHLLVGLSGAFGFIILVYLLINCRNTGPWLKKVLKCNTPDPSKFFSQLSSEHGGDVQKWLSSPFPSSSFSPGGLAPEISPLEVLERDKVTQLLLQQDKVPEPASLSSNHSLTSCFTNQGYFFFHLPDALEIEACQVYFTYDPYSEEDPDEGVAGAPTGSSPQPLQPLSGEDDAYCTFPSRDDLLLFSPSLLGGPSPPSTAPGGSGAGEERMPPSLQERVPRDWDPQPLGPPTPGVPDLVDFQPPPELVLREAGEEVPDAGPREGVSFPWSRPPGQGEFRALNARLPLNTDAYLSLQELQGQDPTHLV
# T1 sequence (looked up) 3: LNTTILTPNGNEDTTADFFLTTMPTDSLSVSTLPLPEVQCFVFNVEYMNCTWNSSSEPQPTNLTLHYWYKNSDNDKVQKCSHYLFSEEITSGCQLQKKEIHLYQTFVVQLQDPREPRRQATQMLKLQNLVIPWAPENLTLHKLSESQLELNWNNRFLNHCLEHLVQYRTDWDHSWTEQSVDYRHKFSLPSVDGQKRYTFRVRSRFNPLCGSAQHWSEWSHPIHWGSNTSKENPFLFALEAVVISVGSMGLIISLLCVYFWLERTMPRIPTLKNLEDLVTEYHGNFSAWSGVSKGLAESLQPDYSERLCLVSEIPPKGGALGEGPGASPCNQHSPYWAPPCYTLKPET
# Key:
# [1] = target: T1, high affinity trimeric IL-2R (IL-2Rα, …); experiment: cell-based or functional assay
# [2] = target: T2, CD47 at the surface of Peak cells (human, UniProt Q08722 19-323); experiment: flow cytometry, Peak cells, after MMP-9 treatment
# T2 construct: whole, on cells; also called cell surface CD47
# Protocol: Binding activity of antibody-cytokine/receptor fusions before and after cleavage was also evaluated by flow cytometry. Peak cells derived from HEK 293 which are human cells expressing CD47 were used to evaluate masking efficacy and binding recovery to CD47 by flow cytometry. Peak cells were diluted in cold FACS buffer (PBS, 2% BSA) to 1.2×10⁶ cells/mL. 3×10⁵ cells/well were added in a 96 well V-bottom plate. The plate was then centrifugated for 5 min at 1300 rpm, 4° C. Supernatants were removed and cells were washed twice using FACS buffer. A serial dilution of antibody-cytokine/receptor fusions previously digested with MMP-9 or not digested as described above was prepared in FACS buffer. An irrelevant antibody was included. Then, 150 μL of each diluted antibody were added in corresponding well and incubated for 30 min at 4° C. Cells were washed twice with FACS buffer and 100 μL of a mouse anti human Fc-PE conjugated secondary antibody were added and the plate was incubated for 20 min at 4° C. Cells were then washed twice with FACS buffer. Finally, 150 μL of SYTOX blue dead cell stain (ThermoFisher) diluted to 1/5000 in FACS buffer were added before detection by flow cytometry with Cytoflex (Beckman Coulter). Acquisition was performed with 10000 events for each well. Data were analyzed by FlowJo software.
# [3] = target: T3, His-tagged human CD47 (human, UniProt Q08722 19-139, limits assumed); experiment: BLI, His-CD47 on HIS1K sensor, after MMP-9 treatment
# T3 construct: loaded on HIS1K biosensors at 2.5 µg/mL; also called target antigen; not shown: His tag
# Protocol: The capacity of the masking domains to inhibit binding activity of the antibody was evaluated by Bio-Layer Interferometry (BLI). […] Binding experiments were performed to evaluate the masking efficiency and the binding recovery after cleavage of the masking domains. BLI was performed on an Octet RED96 system (Sartorius). His-tagged human CD47 was diluted at 2.5 μg/mL in Kinetic Buffer (KB) (Sartorius) and loaded on HIS1K biosensors (anti-His tag antibody biosensors, Sartorius) for 300 seconds. Loaded biosensors were dipped into antibodies diluted at 15 μg/mL in KB for 300 seconds to monitor association. Then, biosensors were transferred in KB for dissociation for 60 seconds. Binding profiles were then analyzed with ForteBio Data Analysis software.
binder,measurement,setting,value
"Construct No 545 after cleavage by MMP-9 (antibody, MMP-9 digest of m19; the sample also holds the released IL-2, IL-2Rα and IL-2Rβ; also called n545 after cleavage; not shown: remnant of CM1 and linker after MMP-9 cleavage) light: DIQMTQSPSSLSASVGDRVTITCNVDQVIANWLNWYQQKPGKAPKLLIYAASSLQSGVPSRFSGSGSGTDFTLTISSLQPEDFATYYCQQMHPRAPKQFGQGTKVEIKRTVAAPSVFIFPPSDEQLKSGTASVVCLLNNFYPREAKVQWKVDNALQSGNSQESVTEQDSKDSTYSLSSTLTLSKADYEKHKVYACEVTHQGLSSPVTKSFNRGEC heavy: not shown","EC50 after cleavage IL-2, HEK Blue IL-2 αβγ reporter assay",[1],0.01 nM
same,EC50,[2],0.6 nM
"Construct No 490 after cleavage by MMP-9 (antibody, MMP-9 digest of m20; the sample also holds the released IL-2, IL-2Rα (to 185) and IL-2Rβ; also called n490 after cleavage; not shown: remnant of CM1 and linker after MMP-9 cleavage) light: DIQMTQSPSSLSASVGDRVTITCNVDQVIANWLNWYQQKPGKAPKLLIYAASSLQSGVPSRFSGSGSGTDFTLTISSLQPEDFATYYCQQMHPRAPKQFGQGTKVEIKRTVAAPSVFIFPPSDEQLKSGTASVVCLLNNFYPREAKVQWKVDNALQSGNSQESVTEQDSKDSTYSLSSTLTLSKADYEKHKVYACEVTHQGLSSPVTKSFNRGEC heavy: not shown","EC50 after cleavage IL-2, HEK Blue IL-2 αβγ reporter assay",[1],0.01 nM
same,EC50,[2],0.5 nM
"Construct No 500 after cleavage by MMP-9 (antibody, MMP-9 digest of m21; the sample also holds the released IL-2, IL-2Rβ and IL-2Rα; also called n500 after cleavage; not shown: remnant of CM1 and linker after MMP-9 cleavage) light: DIQMTQSPSSLSASVGDRVTITCNVDQVIANWLNWYQQKPGKAPKLLIYAASSLQSGVPSRFSGSGSGTDFTLTISSLQPEDFATYYCQQMHPRAPKQFGQGTKVEIKRTVAAPSVFIFPPSDEQLKSGTASVVCLLNNFYPREAKVQWKVDNALQSGNSQESVTEQDSKDSTYSLSSTLTLSKADYEKHKVYACEVTHQGLSSPVTKSFNRGEC heavy: not shown","EC50 after cleavage IL-2, HEK Blue IL-2 αβγ reporter assay",[1],0.02 nM
same,EC50,[2],0.8 nM
"Construct No 1021 after cleavage by MMP-9 (antibody, MMP-9 digest of m35; the sample also holds the released IL-2Rα and IL-2; also called n1021 after cleavage; not shown: remnant of CM1 and linker after MMP-9 cleavage) light: DIQMTQSPSSLSASVGDRVTITCNVDQVIANWLNWYQQKPGKAPKLLIYAASSLQSGVPSRFSGSGSGTDFTLTISSLQPEDFATYYCQQMHPRAPKQFGQGTKVEIKRTVAAPSVFIFPPSDEQLKSGTASVVCLLNNFYPREAKVQWKVDNALQSGNSQESVTEQDSKDSTYSLSSTLTLSKADYEKHKVYACEVTHQGLSSPVTKSFNRGEC heavy: not shown","EC50 after cleavage IL-2, HEK Blue IL-2 αβγ reporter assay",[1],0.01 nM
same,EC50,[2],1.3 nM
same,Binding after cleavage (BLI),[3],1.3 nm
"Construct No 1051 after cleavage by MMP-9 (antibody, MMP-9 digest of m36; the sample also holds the released IL-2Rα-(GGGGS)2-IL-2 fusion (no cleavable linker between the two); also called n1051 after cleavage; not shown: remnant of CM1 and linker after MMP-9 cleavage) light: DIQMTQSPSSLSASVGDRVTITCNVDQVIANWLNWYQQKPGKAPKLLIYAASSLQSGVPSRFSGSGSGTDFTLTISSLQPEDFATYYCQQMHPRAPKQFGQGTKVEIKRTVAAPSVFIFPPSDEQLKSGTASVVCLLNNFYPREAKVQWKVDNALQSGNSQESVTEQDSKDSTYSLSSTLTLSKADYEKHKVYACEVTHQGLSSPVTKSFNRGEC heavy: not shown","EC50 after cleavage IL-2, HEK Blue IL-2 αβγ reporter assay",[1],0.03 nM
same,EC50,[2],1.7 nM
same,Binding after cleavage (BLI),[3],1.2 nm
"Construct No 1030 after cleavage by MMP-9 (antibody, MMP-9 digest of m37; the sample also holds the released IL-2 Q126T and IL-2Rα; also called n1030 after cleavage; not shown: remnant of CM1 and linker after MMP-9 cleavage) light: DIQMTQSPSSLSASVGDRVTITCNVDQVIANWLNWYQQKPGKAPKLLIYAASSLQSGVPSRFSGSGSGTDFTLTISSLQPEDFATYYCQQMHPRAPKQFGQGTKVEIKRTVAAPSVFIFPPSDEQLKSGTASVVCLLNNFYPREAKVQWKVDNALQSGNSQESVTEQDSKDSTYSLSSTLTLSKADYEKHKVYACEVTHQGLSSPVTKSFNRGEC heavy: not shown","EC50 after cleavage IL-2, HEK Blue IL-2 αβγ reporter assay",[1],0.23 nM
same,EC50,[2],0.8 nM
same,Binding after cleavage (BLI),[3],1.3 nm
"Construct No 281 after cleavage by MMP-9 (antibody, MMP-9 digest of m13; the sample also holds the released IL-2; also called n281 after cleavage; not shown: remnant of CM1 and linker after MMP-9 cleavage) light: DIQMTQSPSSLSASVGDRVTITCNVDQVIANWLNWYQQKPGKAPKLLIYAASSLQSGVPSRFSGSGSGTDFTLTISSLQPEDFATYYCQQMHPRAPKQFGQGTKVEIKRTVAAPSVFIFPPSDEQLKSGTASVVCLLNNFYPREAKVQWKVDNALQSGNSQESVTEQDSKDSTYSLSSTLTLSKADYEKHKVYACEVTHQGLSSPVTKSFNRGEC heavy: not shown","EC50 after cleavage IL-2, HEK Blue IL-2 αβγ reporter assay",[1],0.01 nM
same,EC50,[2],0.9 nM
